Assay results as given in article PMC2819549.
Read-outs that look alike come from different tables or passages of the source.

Legend:
[1] = target: human cytochrome P450 3A4 (CYP3A4), wild type, His-tagged (human) (UniProt P08684); experiment: UV-Vis absorbance
[2] = target: human cytochrome P450 3A4 (CYP3A4), wild type, His-tagged (human) (UniProt P08684); experiment: UV-Vis absorbance; remark: listed apart in the source
[3] = target: human cytochrome P450 3A4 (CYP3A4), wild type, His-tagged (human) (UniProt P08684)
[4] = target: human cytochrome P450 3A4 (CYP3A4), wild type, His-tagged (human) (UniProt P08684); experiment: UV-Vis absorbance; remark: listed apart in the source

- Kd [1]: 0.1 µM
- Kd [2]: 0.14 µM
- stoichiometry N [2]: 1
- total reducibility of CYP3A4 by BMR; CYP3A4-ND, with 1-PB [3]: 91%
- total reducibility of CYP3A4 by BMR; CYP3A4-ND, with ANF [3]: 79%
- total reducibility of CYP3A4 by BMR; proteoliposomes LPS-76, no substrate [3]: 55%
- total reducibility of CYP3A4 by BMR; proteoliposomes LPS-76, with ANF [3]: 47%
- total reducibility of CYP3A4 by BMR; proteoliposomes LPS-910, no substrate [3]: 83%
- total reducibility of CYP3A4 by BMR; proteoliposomes LPS-910, with ANF [3]: 85%
- stoichiometry N [4]: 1
Substance: flavin domain of cytochrome P450BM-3 from Bacillus megaterium (BMR) (domain or fragment)
